Data set [1] has as its target T1, Lys(Dnp)-ATNATDSPRIVGG-Lys(Abz).
T1 chain: KATNATDSPRIVGGK

In data set [2] the target is T2, Lys(Dnp)-ATLDPRIVGG-Lys(Abz).
T2 chain: KATLDPRIVGGK

Data set [3] concerns the target T3, Lys(Dnp)-ASTAVVIAGRIVGG-Lys(Abz).
T3 chain: KASTAVVIAGRIVGGK

The target of data set [4] is T4, Lys(Dnp)-ATNATDPPRIVGG-Lys(Abz).
T4 chain: KATNATDPPRIVGGK

The target in data set [5] is T5, Lys(Dnp)-SEYQTFFNPRIVGG-Lys(Abz).
T5 chain: KSEYQTFFNPRIVGGK

Data set [6] addresses T6, Lys(Dnp)-NRLAAALGIRIVGG-Lys(Abz).
T6 chain: KNRLAAALGIRIVGGK

The target in data set [7] is T7, Lys(Dnp)-DFLAEGGGVRIVGG-Lys(Abz).
T7 chain: KDFLAEGGGVRIVGGK

The target in data set [8] is T8, Lys(Dnp)-NLAKPTLPIKIVGG-Lys(Abz).
T8 chain: KNLAKPTLPIKIVGGK

Data set [9] has as its target T9, Lys(Dnp)-DQVTVAMTPRIVGG-Lys(Abz).
T9 chain: KDQVTVAMTPRIVGGK

Data set [10] deals with T10, Lys(Dnp)-RGDSVVYGLRIVGG-Lys(Abz).
T10 chain: KRGDSVVYGLRIVGGK

Data set [11] has as its target T11, Lys(Dnp)-ATNATDWPRIVGG-Lys(Abz).
T11 chain: KATNATDWPRIVGGK

Data set [12] addresses T12, Lys(Dnp)-ATNATNDPRIVGG-Lys(Abz).
T12 chain: KATNATNDPRIVGGK

Data set [13] addresses T13, Lys(Dnp)-YDEDENQSPRIVGG-Lys(Abz).
T13 chain: KYDEDENQSPRIVGGK

The target of data set [14] is T14, Lys(Dnp)-ATNATDKPRIVGG-Lys(Abz).
T14 chain: KATNATDKPRIVGGK

For data set [15], the target named is T15, Lys(Dnp)-EDSDRAIEGRIVGG-Lys(Abz).
T15 chain: KEDSDRAIEGRIVGGK

For data set [16], the target named is T16, Lys(Dnp)-ATNATDIPRIVGG-Lys(Abz).
T16 chain: KATNATDIPRIVGGK

Data set [17] addresses T17, Lys(Dnp)-QISNDTVSPRIVGG-Lys(Abz).
T17 chain: KQISNDTVSPRIVGGK

The target of data set [18] is T18, Lys(Dnp)-ATNATKPPRIVGG-Lys(Abz).
T18 chain: KATNATKPPRIVGGK

Data set [19] deals with T19, Lys(Dnp)-ATNATLPPRIVGG-Lys(Abz).
T19 chain: KATNATLPPRIVGGK

Data set [20] concerns the target T20, Lys(Dnp)-ATNATQPPRIVGG-Lys(Abz).
T20 chain: KATNATQPPRIVGGK

Data set [21] deals with T21, Lys(Dnp)-DFLAEGGGPRIVGG-Lys(Abz).
T21 chain: KDFLAEGGGPRIVGGK

The target in data set [22] is T22, Lys(Dnp)-DNEEGFFSARIVGG-Lys(Abz).
T22 chain: KDNEEGFFSARIVGGK

In data set [23] the target is T23, Lys(Dnp)-ATNATENPRIVGG-Lys(Abz).
T23 chain: KATNATENPRIVGGK

For data set [24], the target named is T24, Lys(Dnp)-LSKNNAIEPRIVGG-Lys(Abz).
T24 chain: KLSKNNAIEPRIVGGK

The target in data set [25] is T25, Lys(Dnp)-EDQEDQVDPRIVGG-Lys(Abz).
T25 chain: KEDQEDQVDPRIVGGK

In data set [26] the target is T26, Lys(Dnp)-ATNATRQPRIVGG-Lys(Abz).
T26 chain: KATNATRQPRIVGGK

For data set [27], the target named is T27, Lys(Dnp)-ATNATNPPRIVGG-Lys(Abz).
T27 chain: KATNATNPPRIVGGK

Data set [28] deals with T28, Lys(Dnp)-NESTTKIKPRIVGG-Lys(Abz).
T28 chain: KNESTTKIKPRIVGGK

The target in data set [29] is T29, Lys(Dnp)-TVELQGVVPRIVGG-Lys(Abz).
T29 chain: KTVELQGVVPRIVGGK

Data set [30] deals with T30, Lys(Dnp)-TNATLDPRIVGG-Lys(Abz).
T30 chain: KTNATLDPRIVGGK

The target of data set [31] is T31, Lys(Dnp)-HTHHAPLSPRIVGG-Lys(Abz).
T31 chain: KHTHHAPLSPRIVGGK

The target in data set [32] is T32, Lys(Dnp)-STPSILPAPRIVGG-Lys(Abz).
T32 chain: KSTPSILPAPRIVGGK

The target in data set [33] is T33, Lys(Dnp)-PDNIAAWYLRIVGG-Lys(Abz).
T33 chain: KPDNIAAWYLRIVGGK

In data set [34] the target is human α-thrombin (FIIa), P00734.

Where a chain is given by its changes, count along the chain named.

B1: Human plasma purified Factor Xa (Molecular Innovations, Inc) (protein)
chain 1: ANSFLEEMKKGHLERECMEETCSYEEAREVFEDSDKTNEFWNKYKDGDQCETSPCQNQGKCKDGLGEYTCTCLEGFEGKNCELFTRKLCSLDNGDCDQFCHEEQNSVVCSCARGYTLADNGKACIPTGPYPCGKQTLERRKR
chain 2: IVGGQECKDGECPWQALLINEENEGFCGGTILSEFYILTAAHCLYQAKRFKVRVGDRNTEQEEGGEAVHEVEVVIKHNRFTKETYDFDIAVLRLKTPITFRMNVAPACLPERDWAESTLMTQKTGIVSGFGRTHEKGRQSTRLKMLEVPYVDRNSCKLSSSFIITQNMFCAGYDTKQEDACQGDSGGPHVTRFKDTYFVTGIVSWGEGCARKGKYGIYTKVTAFLKWIDRSMKTRGLPKAKSHAPEVITSSPLK
As to B1, the FXa kcat/KM in data set [1] is 4.4 M⁻¹ s⁻¹; in data set [2] it was 940 M⁻¹ s⁻¹; in [3], 2.1 M⁻¹ s⁻¹; in data set [4], 1.6 M⁻¹ s⁻¹; in data set [5], 140 M⁻¹ s⁻¹; in data set [6], 350 M⁻¹ s⁻¹. In addition, the FXa kcat/KM in data set [7] worked out at 3.4 M⁻¹ s⁻¹; in data set [8], 3 M⁻¹ s⁻¹; in [9], 470 M⁻¹ s⁻¹; in [10], 1.7 M⁻¹ s⁻¹; in data set [11], 7.2 M⁻¹ s⁻¹; in data set [12] it was 30 M⁻¹ s⁻¹. The FXa kcat/KM was found to be 320 M⁻¹ s⁻¹ in data set [13]; 11 M⁻¹ s⁻¹ in data set [14]; 1900 M⁻¹ s⁻¹ in [15]; 41 M⁻¹ s⁻¹ in data set [16]; 340 M⁻¹ s⁻¹ in data set [17]; 8.7 M⁻¹ s⁻¹ in data set [18]. Further, the FXa kcat/KM in data set [19] is 1.6 M⁻¹ s⁻¹; in data set [20], 9.5 M⁻¹ s⁻¹; in [21], 5.8 M⁻¹ s⁻¹; in data set [22], 230 M⁻¹ s⁻¹; in [23], 3.3 M⁻¹ s⁻¹; in data set [24], 1000 M⁻¹ s⁻¹. In addition, the FXa kcat/KM in data set [25] amounted to 13 M⁻¹ s⁻¹; in data set [26], 4500 M⁻¹ s⁻¹; in data set [27], 2.9 M⁻¹ s⁻¹; in data set [28], 36 M⁻¹ s⁻¹; in [29], 100 M⁻¹ s⁻¹; in [30] it was 860 M⁻¹ s⁻¹. Further, the FXa kcat/KM turned out to be 100 M⁻¹ s⁻¹ in data set [31], 230 M⁻¹ s⁻¹ in [32] and 15 M⁻¹ s⁻¹ in data set [33].

B2: FX [191-194]>[NATLMPR]-HPC4 (protein)
chain: ANSFLEEMKKGHLERECMEETCSYEEAREVFEDSDKTNEFWNKYKDGDQCETSPCQNQGKCKDGLGEYTCTCLEGFEGKNCELFTRKLCSLDNGDCDQFCHEEQNSVVCSCARGYTLADNGKACIPTGPYPCGKQTLERRKRSVAQATSSSGEAPDSITWKPYDAADLDPTENPFDLLDFNQTQPERGDNNATLMPRIVGGQECKDGECPWQALLINEENEGFCGGTILSEFYILTAAHCLYQAKRFKVRVGDRNTEQEEGGEAVHEVEVVIKHNRFTKETYDFDIAVLRLKTPITFRMNVAPACLPERDWAESTLMTQKTGIVSGFGRTHEKGRQSTRLKMLEVPYVDRNSCKLSSSFIITQNMFCAGYDTKQEDACQGDSGGPHVTRFKDTYFVTGIVSWGEGCARKGKYGIYTKVTAFLKWIDRSMKTRGLPKAKSHAPEVITSSPLKDQVDPRLIDGK
With B2, the kcat/KM result in [34] is “No Activity”.

B3: FX [191-194]>[NATIRPR]-HPC4 (protein)
chain: B2 chain with L194I, M195R
For the protein B3, in [34], the kcat/KM entry is reported as “No Activity”.

B4: FX [191-194]>[NATLRPR]-HPC4 (protein)
chain: B2 chain with M195R
In the case of B4, the kcat/KM result in [34] was “No Activity”.

B5: FX [191-194]>[NATDTPR]-HPC4 (protein)
chain: B2 chain with L194D, M195T
As to B5, the kcat/KM result in data set [34] is “No Activity”.

B6: FX [191-194]>[NATLEPR]-HPC4 (protein)
chain: B2 chain with M195E
Consider B6, for which the kcat/KM entry in [34] is given as “No Activity”.

B7: FX [191-194]>[NATMMPR]-HPC4 (protein)
chain: B2 chain with L194M
B7: the kcat/KM result in data set [34] is “No Activity”.

B8: FX [191-194]>[NATIKPR]-HPC4 (protein)
chain: B2 chain with L194I, M195K
B8: in [34], the kcat/KM entry is “No Activity”.

(Values after patent publication US20160024487.)
